In patent US20110243941A1 (published 2011):
Changes are numbered by the printed parent chain. In names and notes the source's numbering stands. One block for each binder: values may come before it.

Experiments:
FcγRIIIA 158V = target: T1, FcγRIIIA 158V (human, UniProt P08637 17-208, limits assumed); test: BIAcore, ch4-4-20
T1 construct: valine at 158; also called 3aV158; CD16A 158V

[1] = target: T2, soluble dimeric FcγRIIB-Fc fusion protein (human, UniProt P31994 43-217); test: BIAcore
T2 construct: extracellular domain; also called FcRIIB-Fc; FcγRIIB-G2; not shown: hinge-CH2-CH3 domain of human IgG2
T2 sequence (looked up): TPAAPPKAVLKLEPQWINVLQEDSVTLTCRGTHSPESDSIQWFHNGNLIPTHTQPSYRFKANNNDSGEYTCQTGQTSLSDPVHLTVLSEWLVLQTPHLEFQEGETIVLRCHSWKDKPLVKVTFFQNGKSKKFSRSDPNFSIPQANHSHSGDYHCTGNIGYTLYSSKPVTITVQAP

[2] = target: T2, soluble dimeric FcγRIIB-Fc fusion …; test: ELISA

T1 sequence (P08637 17-208 F176V limits assumed): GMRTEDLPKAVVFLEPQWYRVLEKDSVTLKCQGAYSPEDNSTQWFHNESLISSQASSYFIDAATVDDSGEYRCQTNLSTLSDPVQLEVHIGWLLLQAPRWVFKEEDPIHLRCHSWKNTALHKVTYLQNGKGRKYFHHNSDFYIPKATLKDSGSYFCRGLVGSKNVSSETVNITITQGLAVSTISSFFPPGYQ

Koff WT/Mut (FcγRIIIA 158V): 0.86
B1: ch 4-4-20 E293V, Q295E, A327T (antibody)
chain: EPKSCDKTHTCPPCPAPELLGGPSVFLFPPKPKDTLMISRTPEVTCVVVDVSHEDPEVKFNWYVDGVEVHNAKTKPRVEEYNSTYRVVSVLTVLHQDWLNGKEYKCKVSNKTLPAPIEKTISKAKGQPREPQVYTLPPSREEMTKNQVSLTCLVKGFYPSDIAVEWESNGQPENNYKTTPPVLDSDGSFFLYSKLTVDKSRWQQGNVFSCSVMHEALHNHYTQKSLSLSPGK

Koff WT/Mut (FcγRIIIA 158V): 1.23
B2: ch 4-4-20 Y319F, P352L, P396L (antibody)
chain: B1 chain with V78E, E80Q, Y104F, T112A, P137L, P181L

Kd [1]: 61.4 nM
koff [1]: 0.085 s⁻¹
ELISA, OD [2]: 0.4 OD
B3: chimeric 4-4-20 anti-fluorescein antibody, wild type Fc (antibody)
chain 1: not shown
chain 2: DVVMTQTPLSLPVSLGDQASISCRSSQSLVHSNGNTYLRWYLQKPGQSPKVLIYKVSNRFSGVPDRFSGSGSGTDFTLKISRVEAEDLGVYFCSQSTHVPWTFGGGTKLEIKRTVAAPSVFIFPPSDEQLKSGTASVVCLLNNFYPREAKVQWKVDNALQSGNSQESVTEQDSKDSTYSLSSTLTLSKADYEKHKVYACEVTHQGLSSPVTKSFNRGEC
